Test results taken from US11833164B2, “Methods of treating Fabry disease in patients having a mutation in the GLA gene” (Amicus Therapeutics, Inc., priority 2019, dated 2023).

System: mutant form of α-Gal A expressed in HEK-293 cells
Experiment: HEK assay (GLP HEK / Migalastat Amenability Assay): α-Gal A activity in lysates of transiently transfected HEK-293 cells incubated with or without 10 μM migalastat
Type: cell-based, human
Settings: for Absolute increase (% WT): 10 μM migalastat versus baseline; for Relative increase: 10 μM migalastat α-Gal A activity relative to baseline; for 10 μM migalastat α-Gal A activity (% WT): 5 days; for 10 μM migalastat α-Gal A activity (% WT) / Baseline α-Gal A activity (% WT): percentage of baseline wild-type α-Gal A activity; for 10 μM migalastat α-Gal A activity (% WT) / Baseline α-Gal A activity (% WT) / Baseline α-Gal A activity / 10 μM migalastat α-Gal A activity: mean ± SEM; for Baseline α-Gal A activity (% WT): absence of migalastat; for Baseline α-Gal A activity / 10 μM migalastat α-Gal A activity: lysates of HEK-293 cells transfected with the mutant form; for Baseline α-Gal A activity: incubated 5 days in the absence of migalastat; for 10 μM migalastat α-Gal A activity: incubated 5 days with 10 μM migalastat
Procedure, shortened: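 HEK-293 cells transiently transfected with mutant α-Gal A and incubated with or without 10 μM migalastat; lysate activity given as nmol free 4-MU released per mg protein per hour. Values are mean±SEM.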

Molecule | Absolute increase (% WT) | Relative increase | 10 μM migalastat α-Gal A activity (% WT) | Baseline α-Gal A activity (% WT) | Baseline α-Gal A activity | 10 μM migalastat α-Gal A activity
H125D (protein) MQLRNPELHLGCALALRFLALVSWDIPGARALDNGLARTPTMGWLHWERFMCNLDCQEEPDSCISEKLFMEMAELMVSEGWKDAGYEYLCIDDCWMAPQRDSEGRLQADPQRFPHGIRQLANYVDSKGLKLGIYADVGNKTCAGFPGSFGYYDIDAQTFADWGVDLLKFDGCYCDSLENLADGYKHMSLALNRTGRSIVYSCEWPLYMWPFQKPNYTEIRQYCNHWRNFADIDDSWKSIKSILDWTSFNQERIVDVAGPGGWNDPDMLVIGNFGLSWNQQVTQMALWAIMAAPLFMSNDLRHISPQAKALLQDKDVIAINQDPLGKQGYQLRQGDNFEVWERPLSGLAWAVAMINRQEIGGPRSYTIAVASLGKGVACNPACFITQLLPVKRKLGFYEWTSRLRSHINPTGTVLLQLENTMQMSLKDLL | 6.5 % WT | 3.3 | 8.8 ± 1.4 % WT | 2.3 ± 0.2 % WT | 995 ± 106 nmol/mg/h | 3282 ± 375 nmol/mg/h
H125R (protein) MQLRNPELHLGCALALRFLALVSWDIPGARALDNGLARTPTMGWLHWERFMCNLDCQEEPDSCISEKLFMEMAELMVSEGWKDAGYEYLCIDDCWMAPQRDSEGRLQADPQRFPHGIRQLANYVRSKGLKLGIYADVGNKTCAGFPGSFGYYDIDAQTFADWGVDLLKFDGCYCDSLENLADGYKHMSLALNRTGRSIVYSCEWPLYMWPFQKPNYTEIRQYCNHWRNFADIDDSWKSIKSILDWTSFNQERIVDVAGPGGWNDPDMLVIGNFGLSWNQQVTQMALWAIMAAPLFMSNDLRHISPQAKALLQDKDVIAINQDPLGKQGYQLRQGDNFEVWERPLSGLAWAVAMINRQEIGGPRSYTIAVASLGKGVACNPACFITQLLPVKRKLGFYEWTSRLRSHINPTGTVLLQLENTMQMSLKDLL | 23.0 % WT | 1.6 | 59.1 ± 1.9 % WT | 36 ± 1.2 % WT | 14738 ± 699 nmol/mg/h | 24004 ± 987 nmol/mg/h
S126I (protein) MQLRNPELHLGCALALRFLALVSWDIPGARALDNGLARTPTMGWLHWERFMCNLDCQEEPDSCISEKLFMEMAELMVSEGWKDAGYEYLCIDDCWMAPQRDSEGRLQADPQRFPHGIRQLANYVHIKGLKLGIYADVGNKTCAGFPGSFGYYDIDAQTFADWGVDLLKFDGCYCDSLENLADGYKHMSLALNRTGRSIVYSCEWPLYMWPFQKPNYTEIRQYCNHWRNFADIDDSWKSIKSILDWTSFNQERIVDVAGPGGWNDPDMLVIGNFGLSWNQQVTQMALWAIMAAPLFMSNDLRHISPQAKALLQDKDVIAINQDPLGKQGYQLRQGDNFEVWERPLSGLAWAVAMINRQEIGGPRSYTIAVASLGKGVACNPACFITQLLPVKRKLGFYEWTSRLRSHINPTGTVLLQLENTMQMSLKDLL | 16.0 % WT | 1.2 | 85.9 ± 5.3 % WT | 69.8 ± 5.1 % WT | 28685 ± 1923 nmol/mg/h | 35340 ± 2027 nmol/mg/h
K127E (protein) MQLRNPELHLGCALALRFLALVSWDIPGARALDNGLARTPTMGWLHWERFMCNLDCQEEPDSCISEKLFMEMAELMVSEGWKDAGYEYLCIDDCWMAPQRDSEGRLQADPQRFPHGIRQLANYVHSEGLKLGIYADVGNKTCAGFPGSFGYYDIDAQTFADWGVDLLKFDGCYCDSLENLADGYKHMSLALNRTGRSIVYSCEWPLYMWPFQKPNYTEIRQYCNHWRNFADIDDSWKSIKSILDWTSFNQERIVDVAGPGGWNDPDMLVIGNFGLSWNQQVTQMALWAIMAAPLFMSNDLRHISPQAKALLQDKDVIAINQDPLGKQGYQLRQGDNFEVWERPLSGLAWAVAMINRQEIGGPRSYTIAVASLGKGVACNPACFITQLLPVKRKLGFYEWTSRLRSHINPTGTVLLQLENTMQMSLKDLL | 6.4 % WT | 1.2 | 32.2 ± 2.3 % WT | 25.8 ± 1.1 % WT | 8968 ± 519 nmol/mg/h | 11003 ± 768 nmol/mg/h
S126C (protein) MQLRNPELHLGCALALRFLALVSWDIPGARALDNGLARTPTMGWLHWERFMCNLDCQEEPDSCISEKLFMEMAELMVSEGWKDAGYEYLCIDDCWMAPQRDSEGRLQADPQRFPHGIRQLANYVHCKGLKLGIYADVGNKTCAGFPGSFGYYDIDAQTFADWGVDLLKFDGCYCDSLENLADGYKHMSLALNRTGRSIVYSCEWPLYMWPFQKPNYTEIRQYCNHWRNFADIDDSWKSIKSILDWTSFNQERIVDVAGPGGWNDPDMLVIGNFGLSWNQQVTQMALWAIMAAPLFMSNDLRHISPQAKALLQDKDVIAINQDPLGKQGYQLRQGDNFEVWERPLSGLAWAVAMINRQEIGGPRSYTIAVASLGKGVACNPACFITQLLPVKRKLGFYEWTSRLRSHINPTGTVLLQLENTMQMSLKDLL | 7.5 % WT | 1.4 | 24.5 ± 1.5 % WT | 16.9 ± 1.1 % WT | 7046 ± 488 nmol/mg/h | 10050 ± 554 nmol/mg/h
G128A (protein) MQLRNPELHLGCALALRFLALVSWDIPGARALDNGLARTPTMGWLHWERFMCNLDCQEEPDSCISEKLFMEMAELMVSEGWKDAGYEYLCIDDCWMAPQRDSEGRLQADPQRFPHGIRQLANYVHSKALKLGIYADVGNKTCAGFPGSFGYYDIDAQTFADWGVDLLKFDGCYCDSLENLADGYKHMSLALNRTGRSIVYSCEWPLYMWPFQKPNYTEIRQYCNHWRNFADIDDSWKSIKSILDWTSFNQERIVDVAGPGGWNDPDMLVIGNFGLSWNQQVTQMALWAIMAAPLFMSNDLRHISPQAKALLQDKDVIAINQDPLGKQGYQLRQGDNFEVWERPLSGLAWAVAMINRQEIGGPRSYTIAVASLGKGVACNPACFITQLLPVKRKLGFYEWTSRLRSHINPTGTVLLQLENTMQMSLKDLL | 5.1 % WT | 1.2 | 25.9 ± 2.3 % WT | 20.8 ± 2 % WT | 8484 ± 872 nmol/mg/h | 10204 ± 703 nmol/mg/h
H125N (protein) MQLRNPELHLGCALALRFLALVSWDIPGARALDNGLARTPTMGWLHWERFMCNLDCQEEPDSCISEKLFMEMAELMVSEGWKDAGYEYLCIDDCWMAPQRDSEGRLQADPQRFPHGIRQLANYVNSKGLKLGIYADVGNKTCAGFPGSFGYYDIDAQTFADWGVDLLKFDGCYCDSLENLADGYKHMSLALNRTGRSIVYSCEWPLYMWPFQKPNYTEIRQYCNHWRNFADIDDSWKSIKSILDWTSFNQERIVDVAGPGGWNDPDMLVIGNFGLSWNQQVTQMALWAIMAAPLFMSNDLRHISPQAKALLQDKDVIAINQDPLGKQGYQLRQGDNFEVWERPLSGLAWAVAMINRQEIGGPRSYTIAVASLGKGVACNPACFITQLLPVKRKLGFYEWTSRLRSHINPTGTVLLQLENTMQMSLKDLL | 14.9 % WT | 1.4 | 48.4 ± 2.7 % WT | 33.5 ± 1.8 % WT | 14162 ± 994 nmol/mg/h | 20228 ± 1240 nmol/mg/h
